Data reported in the DeepSol protein solubility set.

Assay: soluble on expression in E. coli; label from the status in PepcDB or PDB records

Sequence | soluble on expression in E. coli
MGSDKIHHHHHHMPTVHDLDTPSILIDAARAEANIARAQAHADKNGLKLRPHIKTHKLPYWAKKQVAAGAVGITCQKIGEAEVMTDAGLSDIFLPYNILGRAKLQRLKTLHGRVTLSVTSDSMETLEGLAATFTDAGHPLQVLVECDTGMGRCGVQTADQAVALARLIDKAGGLTFGGLMTYPAAGRAAEAEAWLANAKQALAASGLACERISSGGTPDMWRSGEDSVVTEYRPGTYIYLDRYQVAKGVGTLDDCALTVLATVVSHPTATRAILDSGSKALSSDTLGLKDFGELLGAPDARVTGLSEEHGTVTLSGDAKLRIGERVRVVPDHCCVVTNLFNEVNLIDGETVLETLPVAARGKMG | not soluble
MGSDKIHHHHHHMPYAVTLPEFTGPLDLLLRLIERAELDITTIALASVADQYLAHVRTLEEVEPRELAEFVSMAARLILIKSRALLPRSPTTPAEAGDEDAGQLVAQLELYRRFKQAAEVLRRWQDQGRSTFVRLAPPPLLPAPAPISYRITDLLHALERRRQLQLPLAQPEPIVLAPRLTVAEVAERIRARLERTAWFDFTDLLSNDPTTEEVIVSFWAMLELLKRRAIVVEQTMLFGPILIGRGTAPIVTEPADEDEL | not soluble
MGSDKIHHHHHHMQAKTTLEQWEILQAVIDLGGYTQAANVLHRSQSSVSYQLSLLQERLGIELLTIHGRKAELTPEGENLLAQARSVIRSFHALEARAHSLKMGEQASINLVVDSTFPKDRLFHLLSTFQKQHPATRIHLTEVLRNETSAQLKARDADIYIITQREIDGCAGRWLMNVDFVAVAHSHHPLFSLPTPLSHEALSRYPCVEIVMRTPPHSQPASAESWTFTTFEAATQAVLHQVGYGWLPEARISEHITRGELHILPLQQGERRTTPLYLLAEEKGQPLGKEIIMLIELLFGRL | not soluble
MGSDKIHHHHHHMQDLVQAYKEEKNARIKERILAVKLHVVDGKSEKEVSKMLNKGYSTIKLWIGKYKKEGLDGLKDKPRSGRPRKVEEEKIKQILEDKPQKYGIQQEYWTMKTLKIALQEQGIEYKKSRLYELVHELGYNLVKPRPTNIQAEKDKWEDFKKIKKLERKALFFLDECRTVISTSIKKVLAKVGSKPVMRVNIGFSSIYVILAINAWTGEVVVSLAKRPNSESVKYFLRYFKRRVGSGRVYMVMDNYSPHKTKGTLEVCRRKGIHPVFTPPYSPELNMAEAVFKSLKNYMSNKIFYTIEDVKNCIKQFFEENKYRFNLNAITYLGLDKIEV | not soluble
MGSDKIHHHHHHMQDSMYSALFGALTNEHRLNNIANNLANVNTTGYKRDVLAFKDTFLSFAHDEVMEPIPNVRSKKMFPEPIHIAKPRIALAKTDFSQGSLKLTGGTLDMAVHGDGFFKVRTPDGEFYTRNGNFRQTSDGQLVTQQGWPVLGAGGDIQIPPRANLTVAENGTIYADGEEIGQVQVVTLDNLDALEKQGSNLFRLREGAEAQEVPVENPVVLQGFLETANVEVVTEMVNMIEANRQFEAYQKIMQTTDAVDKMATTQVGRGRA | not soluble
MGSDKIHHHHHHMQEERSEKKIGPFKFQSNFEWKEFPQEEFEWFVKEVEKRFGLNLSSYKPQRVKRRTELLLRKYNVGYREYLNMLIKDKKYLDEFMDKMTINVTEFFRNPEKWWELRDEIIPLIAKNSLRMKFWSAGCSSGEEPYSLAILVHELNLSYKTRILATDIDIGVLRRAQEGIYEERAFVSTPKEYLEKYFEKLPDGRYRIKDSVKKIVEFKRHDLLKDPFEKNFDLIVCRNVVIYFEPEAKNELYRKFAESLKPGGFLFVGNTERIFNYKELGFEIYKPFIYRKVK | not soluble
MGSDKIHHHHHHMQIDDFASNLRLLCSTESSVSAVCRQIGVNRQQFSKYLSGAARPSPSNMRKIAVHFGVRPAEFMLPADEFESHPSVAGKLVGPSVTHSDRDGFESAFRGQTIPLRRYLGYYLSYFLTQSWENSIICAIVRLDEVNGLIRCRSLERSIDPDDGSLYLSKYDGRVAMLGNRIFVMEYQTLARDALVETVLYPVGRGQLQYLRGTTFGITSRQRTPFTSPVVWRYLDDFPTLRDVMRKVGRYDINSAKLDPTARSILLGGHNKGTD | not soluble
MGSDKIHHHHHHMQKNITSLSGLNWDDLKFFLEVARTRKVSSAARRLAVDYTTVSRRINSLETSLGTLLFEKSRNNGFIMTAEGQRLLGYAESIESTLHMACEQVSGSSVALSGHIRMGCTEGFGSFFITPQLSHFLDNYPSISVDILPLPHFISLSKREADIVIALERPEHGPYVCCKLCDYSLRLYATQEYLDNHAPIQRKADLSEHVFISYVDDLAFSSELLYLSNLLPNAQAQLRSTSVIAQYTAALQGRALAILPCFLAAQDPRLLPVLTEEVNITRQFWMYCREDLRKLKRITLLWDYIREVTELNKGFLLGENRAARFV | not soluble
MGSDKIHHHHHHMQMNLGLDVGYGDVKAVYQREGILEMLKFPTAIAYAEREVGDLSAFAGGEEYEYRGRKYFVGREALVGAFSTRSFEFMKRYSPLFVFKAVKKIHRRTGELVTDVAMGLPLSHYTEANLKELVPLLQRIEVGREVLELNARFYPQGLGVLADYRLSQAGDVNARTDRDMIILDIGFNTVDVIVVERGRIVKGESDTLERHGVSKISLDLAREIKVRMQLDLSEQESKDVLRQGRIRVYGAERDLAELVRESAEKYMDWLIQEVHSKWMARIQRAEKVIIAGGGAYYLQEHIPEEYLPLVHVPDHPEYANARGFLKALDVESGK | not soluble
MGSDKIHHHHHHMQNQKPSVSLIRATSYEREALKNSLVTLLEPFGGMAAFVKPGQRVLLKPNLLTGARPTKECTTRAELVYAVAQMVIAAGGKPFLGDSPAFGSAKGVAIANGYQPLIQELNLPIIDFHGKRYETVSENFNHLLLSKEVIEADVVINLPKVKSHAQLTLTLGVKNLFGCVPGKMKAWWHMEAGKDADRFGEMLVETARAINPDLTILDGIIGHEGNGPSGGEPRALGILAAASDIFALDRAMVEILNVPPHQVPTVAASQRLRVCPELADVEFPNLHPDLLKIYDWQLPDKLMPIDFAMPRVIKSTFKHFYIRFIKEPMSAYGKQ | not soluble
MGSDKIHHHHHHMQQSKEERVHDVFEKISDKYDVMNSVISFQRHKAWRKETMRIMDVKPGSKALDVCCGTADWTIALAEAVGEQGKVVGLDFSENMLSVGKQKVEALQLKQVELLHGNAMELPFEDNTFDYVTIGFGLRNVPDYMHVLKEMTRVVKPGGKVICLETSQPTMIGFRQGYILYFKYIMPLFGKLFAKSYKEYSWLQESASTFPGMKELANMFEKAGLERVQVKPFTFGVAAMHLGMKPESK | not soluble
MGSDKIHHHHHHMQSLSSHYHQLLGLPSNWEVENVNLSMSSRQVEIRLAFTGKQGECPICGQSCLIYDHAAEQRWRHLDTMQFETILVARLPRCQCKEHGVKTVQAPWAARHSRFTLLFESFAVELLLHCANIKAASRLLRLNWHTVNQIMRRAVQRGLVRRKTETVEYLGIDEKSFKAGQHDVTTLTDLGERRVLEVVEHRTTEATKELLASLNDSQQAGVKAVSVDMWKPFIHAVQELLPKADLVHDRFHISKYLNEAVDLVRRKECRQLDKAGDKRLIGSTYVWLRNPENMGEQQQAELGKLMDAEFRTGKAWSLKNMFRAFWQLGCADAGTFFFEYWSKRIDEVGLVPLTKVKELLQRHFGNVLTWFKHPITNAVSEGLNSKIQIVKASARGFHRFESYRIRILFYCGKLNMAIGS | not soluble
MGSDKIHHHHHHMQSNLVMFPIVEVVRPGTQVKETNSTDYEGAEQQFLLLLATEDLDDNLDRQAAIVSDFEQAVSRAINGAYKRECQDDLAHRFLQRILYRINRLNLFWFDDLRQYTNERSLYLSSCRNQIEAAWQKWELAQVDVAAIQKLDVKQALIDRADADLDPPLSAASRYIREEMSEAGYRQLLAIGSFDGLVEGSRLSRILGGAANEVQCTLVRVLLEEYGNGRLSRKHSTFFAQMLAEFGMNTTPEAYFDLVPWEVLACANHNFLLTERRRYYLRYSGGLTYFEVAGPAAYRNYLAAAQRLGLSNAAMGYWELHIREDERHGRWMLDDVALPLAQRYPDDAWELVLGYDQEKLMGDRAAEAVVRSTRQAESIN | not soluble
MGSDKIHHHHHHMQTLEQLTSPEHSAWITLSQWIDNARNHCEVIKKDQSSAERELFTMQMPTSSPMGAVIYETGGILIHYGWLRILGSGSFKLPRGLMDWNFSKSFSESGEKPKYLLVADDVIGGYFALNGGSLGNNIGKIYYYSSKDLTWHNLNFTYTEFLAWVLNGDVEAFYQGLFWKNWQDDVKQLDGNQVFVFTPDLNQDRKIAIDERQKQEVNIETHYQANFAEKNKFDLAYSVA | not soluble
MGSDKIHHHHHHMQTSHCLWQRKLVAFTSRSERMDENWKQQLATDSYGNPVRSISNLRLIFTLDENLSQIRYDTFCQDDVCFNPLFRNVNGNKIDEESVGKIQDYLERTYRLRLTQNKVFEILKTTSSERSFNPVQEFITQETWDGQPRIATAIIDYLGAEDMPLVREQTKLWFVAAVARVFSPGCKFDNVLTLPGPQGIGKSTFFKTISGKWFNDSFSFASGDKEKVETITNGWIIEISELNGLKRANDVEAAKAFLSRCSDYMRPAYGHKVVEFMRHNVFAATTNETNFLQGDNGNRRWWIIPVKGNGHVSDWLDCLQHSVPQLWAEAYTYYRQGMKLYLSPDMEIEANEIQMQHSNILVDPIMEDIEMYLEREVPVQYASWMIPTRLAYQKGAYSEPNSTMTSLNMVCARQIIEELPNDLVRRNTSKYTSQYINRLMSMIPNWKRSKQEKVKGLHPAYCDKTGRSKHPWVRVGTPSEEVCATLPSEPELPF | not soluble
MGSDKIHHHHHHMQVLGLCRFSYLGLGGFKVMHETLEERRAYLYAPARMEDRFRQFEAVTLPSVTGQTDPDFEFLVVIGECFPDSYRARLEDLVRGVPQVRIRAYPPLRHRTAMAQALDDHRRDMDAPCLQFRLDDDDGMARDFVARYREVAADTEALWRKHPAVAVDFNTGYVFRCGKRGIEISPFQFAYSAIALGVIVAPGHREGIMHFGHHKLWTVMPTITVPGEDMMLRGHNEFNDSRAKPGAKQFSYQPLDADEEAYFKARFNVDNARVREIFSAPMP | not soluble
MGSDKIHHHHHHMRAFVFPGQGSQYSGMAKDFSVYESSKEIFERSKKVLGFDITEIMNGDEETLKLTENAQPSIYITSYIAFLELEKRGILPDVVAGHSLGEYTALAVAGVYDFETGLYLVRKRGEYMSKALEPGKGTMAAVIGLNIETIEEVVNSIEGVYIANYNSHDQVVISGLKESVEKAMEILKEKGARRVVELMVSSPFHTPFLEYAREKMKEEVEKVDFKKPRWPIVMNSTAKPTENPEEIKRNIIEQITGPVLWKQSVDTMKKMGVTEFVEVGPKTVLKNLCRRMGANAKHFTEILSE | not soluble
MGSDKIHHHHHHMRELRYNPLTGQWIMVSAVRKNRPWRPRNFCPFCPGSEETGYGWEVLLLPNRFPMLSFDAPKPKNEDFYKKARAMGQCSVIVETPKHELRDLDELPREQMVKIVRMWIKITETLKENRNVAYLAIFRNKGEEIGVSLKHPHGQLYALPYIPLKVRLKIENSRRYYKRTGECIFCRIIKEEEKNGERTIYENDNFIVFMPFFASWPFEVHIYPKRHIQYLTDLKVNEIEDLAEVIQVTTATLNAVLDRQMPYAMMIFQAPFKGNYPFYHLHIEFYPILRDNGKVKYTAGIELGTWEFTYDGIPEENARKLKEACKKVSQRMSLKGKCI | not soluble
MGSDKIHHHHHHMRIAFSTLGCPQAPLHEVTALAREHRVDGLELRIHDDGIVSDHMDRSRREQVRASISRTGLTVLSLGSYIKVCQPGPDETVVRQLRTALELAADVGAEAVRVFPGAGTGPTTDHYGIAVTELDMRGSSRLAAAAPIAERLGLRLLLETHDSHPRGVDISRILAPFRAEDPVGAIWDVMHPWRFGEDPVQTAHQLGSHYQYVQFKDATMDRQTGNLTMTLPGAGDIPLQRILDLVVARTPTTEEPWISLEWEKAWHPELPGLPEALIAFKTLLGRPESDAALSGSPRRPGSAAGARRNGTL | not soluble
